Measurements: patent US20240376218A1 (published 2024)
Positions count from the first letter of the chain named. Values belong to the binder of their own block, whether it stands above or below them.

Tests used:
human CCR8 [1] = target: T1, human CCR8 (human, UniProt P51685 1-355); assay: cell-based or functional assay
human CCR8 [2] = target: T1, human CCR8; assay: cell-based or functional assay; remark: listed apart in the source
human CCR8 [3] = target: T1, human CCR8; assay: cell-based or functional assay; remark: listed apart in the source
murine CCR8 [4] = target: T2, murine CCR8 (mouse, UniProt P56484 1-353); assay: cell-based or functional assay
T2 sequence: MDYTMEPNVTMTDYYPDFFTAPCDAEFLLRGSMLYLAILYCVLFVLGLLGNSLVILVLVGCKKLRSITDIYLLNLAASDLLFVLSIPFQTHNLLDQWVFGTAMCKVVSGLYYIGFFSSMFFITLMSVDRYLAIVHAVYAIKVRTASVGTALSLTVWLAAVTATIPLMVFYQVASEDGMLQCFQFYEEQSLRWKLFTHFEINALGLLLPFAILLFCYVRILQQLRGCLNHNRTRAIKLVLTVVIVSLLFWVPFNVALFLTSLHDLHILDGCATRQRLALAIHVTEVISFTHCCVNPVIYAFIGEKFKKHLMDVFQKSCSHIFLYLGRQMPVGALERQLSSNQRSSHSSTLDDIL

murine CCR8 [5] = target: T3, murine CCR8 (mouse, UniProt P56484 1-353); assay: cell-based or functional assay; remark: listed apart in the source
T3 sequence: T2 sequence

murine CCR8 [6] = target: T3, murine CCR8; assay: cell-based or functional assay; remark: listed apart in the source
human CCR8 [7] = target: T4, human CCR8 (human, UniProt P51685 1-355); assay: FACS, HuT78 cells endogenously expressing human CCR8
T4 construct: also called hCCR8; P51685_CCR8_HUMAN

[8] = target: T5, FcRn immobilized on FcRn column (Roche, Order No. 8128057001); assay: FcRn affinity chromatography, linear pH gradient
T5 construct: bought prepacked column; also called immobilized FcRn
Description: 30 μL of each antibody (1 mg/mL in equilibration buffer) was applied to the column.

Ca flux assay IC50 (nM), block of signaling induced by CCL1 at 80 ng/ml; CHO cells expressing human CCR8 (human CCR8 [1]): 4.53 nM
B1: TPP-17578 (antibody, human IgG1, lambda, V domains shown)
VH: EVQLLESGGGLVQPGGSLRLSCAASGFTFSNAWMSWVRQAPGKGLEWVSGINWNGGSTGYADSVKGRFTISRDNSKNTLYLQMNSLRAEDTAVYYCVRTYSGHYGPYFDNWGQGTLVTVSS
VL: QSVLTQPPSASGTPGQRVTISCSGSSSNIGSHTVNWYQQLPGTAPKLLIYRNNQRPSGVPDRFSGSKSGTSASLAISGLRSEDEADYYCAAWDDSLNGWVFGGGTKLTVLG

Ca flux assay IC50 (nM), block of signaling induced by CCL1 at 60 ng/ml; CHO cells expressing human CCR8 (human CCR8 [2]): 0.29 nM
B2: TPP-21045 (antibody, human IgG1, lambda, V domains shown)
VH: B1 VH with N31S, N52S, N54S, D62L, V97A, Y107F, N110Y
VL: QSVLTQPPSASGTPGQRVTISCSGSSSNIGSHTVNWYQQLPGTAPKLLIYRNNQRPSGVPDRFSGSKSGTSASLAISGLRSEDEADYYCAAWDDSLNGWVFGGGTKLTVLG

Ca flux assay Span ratio (from max to min), block of signaling induced by CCL1 at 60 ng/ml; CHO cells expressing human CCR8 (human CCR8 [3]): ~11400
Ca flux assay IC50 (nM), block of signaling induced by CCL1 at 60 ng/ml; CHO cells expressing human CCR8 (human CCR8 [2]): 0.52 nM
B3: TPP-20955 (antibody, human IgG1, lambda, V domains shown)
VH: EVQLLESGGGLVQPGGSLRLSCAASGFTFSSYGMHWVRQAPGKGLEWVSAIKWGGGSHGYADSVKGRFTISRDNSKNTLYLQMNSLRAEDTAVYYCARGHHKGYDGRFFDYWGQGTLVTVSS
VL: QSVLTQPPSVSGAPGQRVTISCTGSSSNIGAGYNVHWYQQLPGTAPKLLIYTNNRRPSGVPDRFSGSKSGTSASLAISGLRSEDEADYYCAAWDASLSGWVFGGGTKLTVLG

ADCC EC50 (pM); murine CCR8 expressing HEK293 target cells, primary murine NK effector cells (murine CCR8 [4]): 111 pM
B4: TPP-15285 (antibody, mouse IgG2a)
heavy: EVQLLESGGGLVQPGGSLRLSCAASGFTFSDYGVHWVRQAPGKGLEWVSGVSWNGSRTHYADSVKGRFTISRDNSKNTLYLQMNSLRAEDTAVYYCVTRGAWGQGTLVTVSSAKTTAPSVYPLAPVCGDTTGSSVTLGCLVKGYFPEPVTLTWNSGSLSSGVHTFPAVLQSDLYTLSSSVTVTSSTWPSQSITCNVAHPASSTKVDKKIEPRGPTIKPCPPCKCPAPNLLGGPSVFIFPPKIKDVLMISLSPIVTCVVVDVSEDDPDVQISWFVNNVEVHTAQTQTHREDYNSTLRVVSALPIQHQDWMSGKEFKCKVNNKDLPAPIERTISKPKGSVRAPQVYVLPPPEEEMTKKQVTLTCMVTDFMPEDIYVEWTNNGKTELNYKNTEPVLDSDGSYFMYSKLRVEKKNWVERNSYSCSVVHEGLHNHHTTKSFSRTPGK
light: QSVLTQPPSASGTPGQRVTISCSGSSFNIGSHFVYWYQQLPGTAPKLLIYKNNQRPSGVPDRFSGSKSGTSASLAISGLRSEDEADYYCAAWDDSLNGPVFGGGTKLTVLGQPKSSPSVTLFPPSSEELETNKATLVCTITDFYPGVVTVDWKVDGTPVTQGMETTQPSKQSNNKYMASSYLTLTARAWERHSSYSCQVTHEGHTVEKSLSRADCS

ADCP EC50 (pM); murine CCR8 expressing HEK293 target cells, murine bone marrow derived M2 macrophages (murine CCR8 [5]): 402 pM
B5: TPP-15285 (antibody, mouse IgG2a)
heavy: B4 heavy
light: B4 light

Ca flux assay IC50 (nM), block of signaling induced by CCL1 at 80 ng/ml; CHO cells expressing human CCR8 (human CCR8 [1]): 93.8 nM
B6: TPP-17577 (antibody, human IgG1, lambda, V domains shown)
VH: EVQLLESGGGLLQPGGSLRLSCAASGFTFSNAWMSWVRQAPGKGLEWVAVISYDGRNKYSADSVKGRFTISRDNSKNTLYLQMNSLRAEDTAVYYCARGLPYGYWGQGTLVTVSS
VL: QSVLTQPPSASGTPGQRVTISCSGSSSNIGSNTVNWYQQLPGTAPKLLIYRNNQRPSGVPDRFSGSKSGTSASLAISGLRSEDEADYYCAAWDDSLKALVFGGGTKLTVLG

Ca flux assay IC50 (nM), block of signaling induced by CCL1 at 40 ng/ml; CHO cells expressing murine CCR8 (murine CCR8 [6]): 1.65 nM
B7: TPP-14095 (antibody, human IgG1, lambda, V domains shown)
VH: EVQLLESGGGLVQPGGSLRLSCAASGFTFSSYGMHWVRQAPGKGLEWVSAISGSGGSTYYADSVKGRFTISRDNSKNTLYLQMNSLRAEDTAVYYCARGRQLGSWGQGTLVTVSS
VL: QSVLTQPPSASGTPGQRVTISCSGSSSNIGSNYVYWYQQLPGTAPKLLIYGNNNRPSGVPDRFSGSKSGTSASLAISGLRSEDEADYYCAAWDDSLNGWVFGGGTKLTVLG

EC50 (human CCR8 [7]): 3.25 nM
B8: TPP-27495 (antibody, human IgG1, lambda)
heavy: EVQLLESGGGLVQPGGSLRLSCAASGFTFSSYGMHWVRQAPGKGLEWVSAINWNGGSTGYADSVKGRFTISRDNSKNTLYLQMNSLRAEDTAVYYCARGHHSGYDGRFFDYWGQGTLVTVSSASTKGPSVFPLAPSSKSTSGGTAALGCLVKDYFPEPVTVSWNSGALTSGVHTFPAVLQSSGLYSLSSVVTVPSSSLGTQTYICNVNHKPSNTKVDKKVEPKSCDKTHTCPPCPAPELLGGPSVFLFPPKPKDTLYITREPEVTCVVVDVSHEDPEVKFNWYVDGVEVHNAKTKPREEQYNSTYRVVSVLTVLHQDWLNGKEYKCKVSNKALPAPIEKTISKAKGQPREPQVYTLPPSRDELTKNQVSLTCLVKGFYPSDIAVEWESNGQPENNYKTTPPVLDSDGSFFLYSKLTVDKSRWQQGNVFSCSVMHEALHNHYTQKSLSLSPGK
light: not shown
notes: 70% afucosylated

pH at Elution [8]: 7.88 pH
B9: TPP-27495 (antibody, human IgG1, lambda)
heavy: B8 heavy
light: not shown
modifications: 70% afucosylated
